Test results: patent US20240239881A1 (Innovent, published 2024)

Experiments:
[1] = target: T1, recombinant biotinylated hAngiopoietin-2 protein (R&D, Cat. No.: BT623B/CF) (human, UniProt O15123 19-496, limits assumed, biotinylated (sites not given)); experiment: ELISA: biotin Ang2 (R&D BT623B/CF) captured on coated streptavidin (SA), antibody titrated, anti-human IgG-HRP, OD450-OD620, GraphPad fit
T1 construct: Bought protein; also called Biotin Ang2; human biotin Ang2 protein
T1 sequence: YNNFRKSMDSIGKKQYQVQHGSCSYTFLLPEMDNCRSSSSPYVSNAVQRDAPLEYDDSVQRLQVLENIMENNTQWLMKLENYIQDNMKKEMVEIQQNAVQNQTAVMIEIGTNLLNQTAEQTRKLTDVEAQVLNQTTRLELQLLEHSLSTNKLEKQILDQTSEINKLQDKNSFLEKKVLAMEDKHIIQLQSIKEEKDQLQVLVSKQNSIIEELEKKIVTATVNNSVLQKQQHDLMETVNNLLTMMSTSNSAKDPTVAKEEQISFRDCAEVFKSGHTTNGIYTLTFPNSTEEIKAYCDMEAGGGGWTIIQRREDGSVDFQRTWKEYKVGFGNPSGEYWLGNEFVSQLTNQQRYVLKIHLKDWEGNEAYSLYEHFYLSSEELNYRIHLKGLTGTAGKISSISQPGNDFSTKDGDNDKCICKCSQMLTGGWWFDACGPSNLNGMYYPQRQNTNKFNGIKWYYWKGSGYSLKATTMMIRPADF
Experimental: The binding of 81H10 and hz81H10.4 of the present invention to human biotin Ang2 protein was measured in an SA-biotin Ang2-based ELISA assay.
SA protein (Thermo Fisher) was diluted to 1 μg/ml with PBS, and was coated onto a microtiter plate at 100 μl/well at 4° C. overnight. After three washes with PBST, the plate was blocked with 5% BSA for 1 h. Biotin Ang2 (R&D, Cat. No. BT623B/CF) was incubated at a concentration of 0.5 μg/ml for 1 h. Gradient diluted antibodies (maximum concentration 20 nM, 1:3 serial dilution) were added to the microtiter plate and incubated for 2 h, and the plate was washed three times with PBST. […] Then the plate was washed for 6 times with PBST. Chromogenic reaction was performed with 100 ul TMB and terminated with 100 ul 2N sulfuric acid. The reading of OD₄₅₀-OD₆₂₀ was taken by microplate reader. The concentration-dependent curve was fitted with GraphPad based on the OD₄₅₀-OD₆₂₀.

Rabbit ANG2 = target: T2, Rabbit ANG2 (rabbit, UniProt G1T9B3 19-496); experiment: SPR, Biacore T200, antibody captured on Protein G chip, experiment 1
T2 sequence: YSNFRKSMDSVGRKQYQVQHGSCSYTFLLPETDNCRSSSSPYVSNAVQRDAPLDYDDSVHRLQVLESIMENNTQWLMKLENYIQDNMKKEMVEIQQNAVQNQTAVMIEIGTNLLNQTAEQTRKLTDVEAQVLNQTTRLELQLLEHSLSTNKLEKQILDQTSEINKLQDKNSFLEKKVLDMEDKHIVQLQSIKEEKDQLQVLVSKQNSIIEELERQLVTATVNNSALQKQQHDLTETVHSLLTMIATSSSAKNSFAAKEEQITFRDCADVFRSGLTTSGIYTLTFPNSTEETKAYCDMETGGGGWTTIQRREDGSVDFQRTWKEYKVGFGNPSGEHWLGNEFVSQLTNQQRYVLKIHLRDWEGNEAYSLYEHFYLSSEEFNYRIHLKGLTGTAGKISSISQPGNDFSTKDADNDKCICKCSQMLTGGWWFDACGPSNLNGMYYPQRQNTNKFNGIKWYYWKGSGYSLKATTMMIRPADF
Experimental: (§1) The antibody was diluted to 1 μg/mL and was captured onto channel 2 for 30 s, and channel 1 was the blank control channel. The gradient-diluted Human ANG2, Rhesus ANG2, Rabbit ANG2, Rat ANG2 and Mouse ANG2 were sequentially injected into channels 1 and 2 of the chip, from low to high concentrations (0-32 nM), at a flow rate of 30 μL/min, with one concentration per cycle, and with 180 s association time and 1200 s dissociation time at 25° C. Finally, the chip was regenerated using Glycine pH 1.5 at 30 μL/min for 30 s. The affinity assay was repeated three times.

Rat ANG2 = target: T3, Rat ANG2 (rat, UniProt O35462 19-496, limits assumed); experiment: SPR, Biacore T200, antibody captured on Protein G chip
T3 sequence (looked up): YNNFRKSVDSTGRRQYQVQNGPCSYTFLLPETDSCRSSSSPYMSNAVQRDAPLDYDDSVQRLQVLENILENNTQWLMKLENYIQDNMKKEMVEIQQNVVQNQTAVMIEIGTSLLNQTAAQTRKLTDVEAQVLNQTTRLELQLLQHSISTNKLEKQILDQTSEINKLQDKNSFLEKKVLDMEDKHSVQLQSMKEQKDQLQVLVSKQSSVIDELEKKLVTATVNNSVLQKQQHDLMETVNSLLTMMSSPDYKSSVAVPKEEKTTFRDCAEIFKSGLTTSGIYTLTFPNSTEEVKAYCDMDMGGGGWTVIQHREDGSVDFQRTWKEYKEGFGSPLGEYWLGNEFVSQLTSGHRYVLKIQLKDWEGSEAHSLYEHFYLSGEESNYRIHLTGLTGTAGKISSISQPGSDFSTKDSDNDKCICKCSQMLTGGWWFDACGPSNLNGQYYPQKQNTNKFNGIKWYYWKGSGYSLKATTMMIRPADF
Experimental: as §1

Mouse ANG2 = target: T4, Mouse ANG2 (mouse, UniProt O35608 19-496, limits assumed); experiment: as above
T4 sequence (looked up): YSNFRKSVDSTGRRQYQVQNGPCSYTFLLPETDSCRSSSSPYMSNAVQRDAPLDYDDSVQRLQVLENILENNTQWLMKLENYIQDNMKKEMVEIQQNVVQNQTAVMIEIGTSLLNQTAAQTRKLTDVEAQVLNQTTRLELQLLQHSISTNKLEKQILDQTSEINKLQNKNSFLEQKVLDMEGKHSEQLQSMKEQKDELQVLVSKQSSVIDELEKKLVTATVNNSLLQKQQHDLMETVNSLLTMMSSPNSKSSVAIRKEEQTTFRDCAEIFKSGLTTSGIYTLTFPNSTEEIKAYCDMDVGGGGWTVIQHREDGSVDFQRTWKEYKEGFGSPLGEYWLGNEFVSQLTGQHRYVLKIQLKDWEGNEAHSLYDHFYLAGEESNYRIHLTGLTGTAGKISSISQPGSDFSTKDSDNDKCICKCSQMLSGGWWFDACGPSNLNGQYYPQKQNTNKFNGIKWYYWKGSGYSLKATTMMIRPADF
Experimental: as §1

- EC50 [1]: 0.0212 nM
- Kd (Rabbit ANG2): 0.518 nM
- koff (Rabbit ANG2): 0.000153 s⁻¹
- kon (Rabbit ANG2): 294000 M⁻¹ s⁻¹
- binding result (Rat ANG2): no binding (tested: 0-32 nM)
- binding result (Mouse ANG2): no binding (tested: 0-32 nM)
B1: humanized antibody hz81H10.4 (antibody, human IgG1, kappa, V domains shown)
VH: EVQLVESGGGLVKPGGSLRLSCAASGFTFSNYWMNWVRQAPGKGLEWVAEIRLKSNNYATHYAESVKGRFTISRDVSKNTVYLQMNSLKTEDTAVYYCTDTAPFAYWGQGTLVTVSS
VL: DIQMTQSPSSLSASVGDRVTITCKASQDVGTDVAWYQQKPGKAPKLLIYWASTRHTGVPSRFSGSGSGTDFTLTISSLQPEDFATYYCQQYSSYPLTFGGGTKVEIKR
notes: also called IBI335
